Measurements from patent US20230218656, “POLYPEPTIDES […] AGAINST VIRAL INFECTION AND USES […]” (QUADRUMIX BIOTECHNOLOGY INC., published 2023).

Target: sdAb1 (NB07) (Artificial sequence)
Assay: MST; negative control; p86 says only weak interaction in phage ELISA (FIG. 4)
Settings: G4

Sequence of sdAb1 (NB07) (Artificial sequence) (chain, as listed by the source): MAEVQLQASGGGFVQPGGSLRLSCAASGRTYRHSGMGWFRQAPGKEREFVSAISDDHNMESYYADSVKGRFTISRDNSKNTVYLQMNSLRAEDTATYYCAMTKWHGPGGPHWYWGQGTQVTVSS

## CTGGGAGGAGCTGGGGGAGGAGA (structured_DNA) [HBV pre-core promoter G-quadruplex (WT)]
  binding result: no binding
